For test [1], the target named is T1, SARS-CoV-2 Omicron BA.1 spike protein (on pseudotyped lentivirus) (SARS-CoV-2), P0DTC2. The test is described as follows: cell-based or functional assay.
Test [2] has as its target T1, SARS-CoV-2 Omicron BA.1 spike protein ….
Test [3] deals with SARS-CoV-2 WA-1 S-2P spike protein (SARS-CoV-2), P0DTC2. Conditions: remark: other sources report otherwise.

Like-named read-outs stand apart in the source and are kept apart here. Some results are limits rather than exact numbers.

B1: B2-269.1 (antibody, V domains shown)
VH: EVQLVESGGGLVQPGGSLRLSCAASGITVSSNYMSWVRQPPGKGLDWVSLIFSGGSTYYADSVKGRFTISRDNSKNTLYLQMNSLRAEDTAVYYCARVGVAVAGTDYDIWGQGTMVTVSS
VL: DIQMTQSPSSLSASVGDRVTITCQASQDINKYLNWYQQKPGKAPKLLIYDASNLETGVPSRFSGSGSGTDFTFTISSLQPEDIATYYCLHYENLPLSFGGGTKVEIK
As to B1, the neutralization IC50 in test [1] was under 0.1 mg/L. Besides, in test [2], the neutralization IC50 stood at 0.01 mg/L and the neutralization IC80 amounted to 0.02 mg/L.

B2: A19-46.1 (antibody)
chain 1: QVQLVESGGGVVQPGRSLRLSCAASGFTLSSYGMHWVRQAPGKGLEWVAVISYDGSNKYYVDSVKGRFTISRDNSKNTLYLQMNSLRAEDTAVYYCARGWAYWELLPDYYYGMDVWGQGTTVTVSS
chain 2: QTVVTQEPSFSVSPGGTVTLTCGLSSGSVSTAYFPSWYQQTPGQAPRTLIYGTNTRSSGVPDRFSGSILGNKAALTITGAQADDESDYYCVLYMGRGIVVFGGGTKLTVL
In turn, B2 displayed a % inhibition of ACE2 binding in test [3] of 98%.
